From patent US20260242478A1 (published 2026)
Where no end group is shown, it is not given here.

B1: Phage-2948 (peptide)
peptide: FPHMCKPEWMCAGF
modifications: cysteine pairing not given here; also: peptide displayed as fusion to phage pIII
B2: Phage-2937 (peptide)
peptide: VFPMCKPAWMCLGF
notes: Peptide-180 library clone, tested as clonal phage (peptide fused to pIII)
B3: Phage-2936 (peptide)
peptide: IDPMCKPLWMCAGF
modifications: cysteine pairing not given here; also: peptide displayed as fusion to phage pIII
notes: as for B2
B4: Phage-2935 (peptide)
peptide: IHPVCKPDWMCAGF
modifications: cysteine pairing not given here; also: peptide fused to pIII
notes: as for B2
B5: Phage-2934 (peptide)
peptide: EFNWCRPLWMCVGF
modifications: cysteine pairing not given here; also: peptide displayed as fusion to phage pIII
notes: Peptide-180 library clone, tested as clonal phage (peptide fused to pIII of the bacteriophage)
B6: Phage-2947 (peptide)
peptide: GDHLCRPSWMCVGF
notes: as for B2
B7: Phage-2941 (peptide)
peptide: DVRMCKPSWMCIGL
notes: as for B2
B8: Phage-2940 (peptide)
peptide: FDKICVPTWMCTGF
notes: as for B2
B9: Phage-2945 (peptide)
peptide: TVIKCIPAWMCDGF
notes: as for B2
B10: Phage-2938 (peptide)
peptide: HVPKCVPQWMCIGF
notes: as for B2
B11: Phage-2942 (peptide)
peptide: ELILCQPRWMCEGF
notes: as for B2
B12: Phage-2946 (peptide)
peptide: EMRMCTPPWMCWGF
notes: as for B2
B13: Phage-2923 (as printed at r2443/r2444; SEQ ID NO: 3238) (peptide)
peptide: VWPRCEPQWMCAGF
modifications: cysteine pairing not given here; also: peptide displayed as fusion to phage pIII
notes: tested as crude phage supernatant; The label 2923 is printed twice (r2444 and r2446); by the order this row is probably Phage-2922; also called probably Phage-2922
B14: Phage-2944 (peptide)
peptide: LTPMCKPSWMCDGF
notes: as for B2
B15: Phage-2952 (peptide)
peptide: IMPKCEPIWMCAGF
modifications: cysteine pairing not given here; also: peptide displayed as fusion to phage pIII
B16: Phage-2943 (peptide)
peptide: EGIYCRPAWMCEGF
notes: as for B2
B17: Phage-2939 (peptide)
peptide: ISALCVPDWMCYGF
notes: as for B2

Key:
[1] = molecular target: T1, PSMA Fab (006 PSMA Fab) (biotinylated (site not stated)); test: clonal phage ELISA on biotinylated PSMA Fab captured on neutravidin, anti-M13 HRP detection, no PSMA antigen
T1 construct: also called Anti-PSMA Fab

[2] = molecular target: T1, PSMA Fab (006 PSMA Fab); test: clonal phage ELISA on biotinylated PSMA Fab captured on neutravidin, anti-M13 HRP detection, competitor PSMA antigen
Description: (§1) Clonal phage were harvested as crude supernatants and screened via standard ELISAs. […] Prior to the addition of clonal phage. wells were incubated with blocking buffer and PSMA antigen or blocking buffer alone. Without washing or aspirating, clonal phage supernatants were then added to the wells and incubated for a short time. Wells were then washed followed by detection of bound phage using a horse radish conjugated anti-M13 antibody.

[3] = molecular target: T2, PSMA Fab (006 PSMA Fab); test: phage ELISA; clonal phage on plate-captured PSMA Fab pre-incubated with PSMA antigen as competitor, anti-M13 HRP detection
T2 construct: also called Anti-PSMA Fab; anti-PSMA Fab
Description: as §1

[4] = molecular target: T2, PSMA Fab (006 PSMA Fab); test: phage ELISA; clonal phage supernatant on biotinylated PSMA Fab captured on neutravidin plate, anti-M13 HRP detection
Description: as §1

[5] = molecular target: T3, 006 PSMA Fab (biotinylated (site not stated)); test: clonal phage ELISA on captured PSMA Fab, wells pre-incubated with PSMA antigen as competitor
T3 construct: also called Anti-PSMA Fab

[6] = molecular target: T3, 006 PSMA Fab; test: clonal phage ELISA on biotinylated PSMA Fab captured on neutravidin, anti-M13-HRP detection;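 note: crude clonal phage supernatants added to wells preincubated with PSMA antigen in blocking buffer or with blocking buffer alone, brief binding period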
Description: as §1

[7] = molecular target: T4, Anti-PSMA Fab; test: phage ELISA; PSMA Fab on plate pre-incubated with PSMA antigen (competitor), anti-M13-HRP detection
T4 construct: Biotinylated and captured on neutravidin coated plates in the panning ELISA; also called 006 PSMA Fab
Description: as §1

[8] = molecular target: T4, Anti-PSMA Fab; test: phage ELISA; biotinylated PSMA Fab on neutravidin plate, clonal phage supernatant, anti-M13-HRP detection;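 note: wells were preincubated with blocking buffer containing PSMA antigen or with blocking buffer only, then phage supernatant was added without washing for a brief incubation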
Description: as §1

Row | Binder | Phage binding ELISA signal, Anti-PSMA Fab with PSMA antigen [3] | Phage binding ELISA signal, Anti-PSMA Fab [4] | Phage binding ELISA signal, Anti-PSMA Fab in presence of PSMA [5] | Phage binding ELISA signal, Anti-PSMA Fab [6] | other results
1 | B1 |  |  |  |  | Phage binding ELISA signal, Anti-PSMA Fab [1]: 2.28; Phage binding ELISA signal, Anti-PSMA Fab with PSMA antigen [2]: 0.0876
2 | IVPACKPVWMCDGF (tested as crude phage supernatant) [Phage-2928] | 0.11 | 2.31 |  |  | 
3 | NIPHCVPAWMCIGF (tested as crude phage supernatant) [Phage-2929] | 0.109 | 2.31 |  |  | 
4 | B2 |  |  | 0.319 | 2.29 | 
5 | LAIMCRPAWMCSGF (tested as crude phage supernatant) [Phage-2920] | 0.112 | 2.31 |  |  | 
6 | TPIFCVPAWMCSGF (tested as crude phage supernatant) [Phage-2925] | 0.0946 | 2.31 |  |  | 
7 | B3 |  |  | 0.145 | 2.29 | 
8 | B4 |  |  | 0.0823 | 2.29 | 
9 | B5 |  |  | 0.157 | 2.29 | 
10 | VPKMCTPPWMCWGF (tested as crude phage supernatant) [Phage-2923] | 0.0934 | 2.31 |  |  | 
11 | B6 |  |  | 0.0649 | 2.28 | 
12 | LDVLCKPTWMCMGF (also called peptide-180 library clone) [Phage-2917] |  |  |  |  | Phage binding ELISA signal, Anti-PSMA Fab in presence of PSMA [7]: 0.0821; Phage binding ELISA signal, Anti-PSMA Fab [8]: 2.32
13 | B7 |  |  | 0.0754 | 2.28 | 
14 | B8 |  |  | 0.107 | 2.28 | 
15 | VDRMCKPTWMCEGF (tested as crude phage supernatant) [Phage-2926] | 0.12 | 2.31 |  |  | 
16 | B9 |  |  | 0.09 | 2.28 | 
17 | B10 |  |  | 0.202 | 2.29 | 
18 | VDRMCVPKWMCEGL (also called peptide-180 library clone) [Phage-2916] |  |  |  |  | Phage binding ELISA signal, Anti-PSMA Fab in presence of PSMA [7]: 0.0971; Phage binding ELISA signal, Anti-PSMA Fab [8]: 2.32
19 | SSPICKPMWMCTGF [Phage-2950] |  |  |  |  | Phage binding ELISA signal, Anti-PSMA Fab [1]: 2.28; Phage binding ELISA signal, Anti-PSMA Fab with PSMA antigen [2]: 0.0918

Row | Binder | Phage binding ELISA signal, Anti-PSMA Fab with PSMA antigen [3] | Phage binding ELISA signal, Anti-PSMA Fab [4] | Phage binding ELISA signal, Anti-PSMA Fab in presence of PSMA [5] | Phage binding ELISA signal, Anti-PSMA Fab [6] | other results
20 | ENIMCEPMWMCIGF [Phage-2951] |  |  |  |  | Phage binding ELISA signal, Anti-PSMA Fab [1]: 2.27; Phage binding ELISA signal, Anti-PSMA Fab with PSMA antigen [2]: 0.0839
21 | IKPFCVPEWMCVAL (tested as crude phage supernatant) [Phage-2927] | 0.121 | 2.31 |  |  | 
22 | B11 |  |  | 0.0637 | 2.28 | 
23 | VERACVPVWMCEGF (tested as crude phage supernatant) [Phage-2933] | 0.11 | 2.29 |  |  | 
24 | B12 |  |  | 0.112 | 2.28 | 
25 | B13 | 0.0854 | 2.31 |  |  | 
26 | TQALCVPSWMCDGF (tested as crude phage supernatant) [Phage-2930] | 0.0747 | 2.3 |  |  | 
27 | VEQMCKPEWMCKGF (tested as crude phage supernatant) [Phage-2931] | 0.109 | 2.3 |  |  | 
28 | B14 |  |  | 0.105 | 2.28 | 
29 | B15 |  |  |  |  | Phage binding ELISA signal, Anti-PSMA Fab [1]: 2.27; Phage binding ELISA signal, Anti-PSMA Fab with PSMA antigen [2]: 0.0746
30 | LPRICVPEWMCLGF (also called peptide-180 library clone) [Phage-2918] |  |  |  |  | Phage binding ELISA signal, Anti-PSMA Fab in presence of PSMA [7]: 0.0919; Phage binding ELISA signal, Anti-PSMA Fab [8]: 2.32
31 | B16 |  |  | 0.0765 | 2.28 | 
32 | MHMLCRPAWMCSGF (tested as crude phage supernatant) [Phage-2932] | 0.21 | 2.29 |  |  | 
33 | B17 |  |  | 0.696 | 2.28 | 
34 | WDHLCKPDWMCLGF [Phage-2949] |  |  |  |  | Phage binding ELISA signal, Anti-PSMA Fab [1]: 2.28; Phage binding ELISA signal, Anti-PSMA Fab with PSMA antigen [2]: 0.0766
35 | ISHMCKPVWMCSGL (tested as crude phage supernatant) [Phage-2921] | 0.125 | 2.31 |  |  | 
36 | VGKMCVPEWMCHGF (tested as crude phage supernatant) [Phage-2924] | 0.082 | 2.31 |  |  | 
37 | VDPMCIPRWMCSFL (also called peptide-180 library clone) [Phage-2919] |  |  |  |  | Phage binding ELISA signal, Anti-PSMA Fab in presence of PSMA [7]: 0.0867; Phage binding ELISA signal, Anti-PSMA Fab [8]: 2.32
